According to paper PMC5336075, “Single-Step Purification of Monomeric l-Selectin via Aptamer Affinity Chromatography”:

Molecular target: T1, L-selectin LE-His (monomeric, lectin and EGF-like domains) (human, UniProt P14151 39-194)
T1 sequence: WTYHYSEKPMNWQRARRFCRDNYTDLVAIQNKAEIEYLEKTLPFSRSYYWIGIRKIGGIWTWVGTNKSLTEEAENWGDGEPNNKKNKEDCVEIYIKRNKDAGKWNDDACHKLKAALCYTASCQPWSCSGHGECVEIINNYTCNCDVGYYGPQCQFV
Test: SPR (single cycle kinetics); 1 mM CaCl2; protein in cell culture supernatant; abstract gives ~12 nM; SPR: HBS-Ca (20 mM HEPES pH 7.5, 150 mM NaCl, 1 mM CaCl2), Biacore X100, temperature not stated; column: PBS with 0.9 mM CaCl2 and 0.5 mM MgCl2, room temperature
Details: protein: recombinant; tags: C-terminal His; label: 5' biotin

Which Kd does the source give for GCCAGTACAAGGTGCTAAACGTAATGGC (structured_DNA) [LD201mΔ1] here?
Its Kd is 11.2 ± 0.8 nM.
